± gives the uncertainty stated by the source.
Test: self-splicing fitness, log relative to wild type (ln ratio); higher = more splicing; Tetrahymena group I intron in knt gene, E. coli kanamycin selection, DiMSum; sequences stand for … in CUCUCU…GGAGGGAAAAGUUAUCAGGCAUGCACCUGGUAGCUAGUCUUUAAACCAAUAGAUUGCAUCGGUUUAAAAGGCAAGACCGUCAAAUUGCGGGAAAGGGGUCAACAGCCGUUCAGUACCAAGUCUCAGGGGAAACUUUGAGAUGGCCUUGCAAAGGGUAUGGUAAUAAGCUGACGGACAUGGUCCUAACCACGCAGCCAAGUCCUAAGUCAACAGAUCUUCUGUUGAUAUGGAUGCAGUUCACAGACUAAAUGUCGGUCGGGGAAGAUGUAUUCUUCUCAUAAGAUAUAGUCGGACCUCUCCUUAAUGGGAGCUAGCGGAUGAAGUGAUGCAACACUGGAGCCGCUGGGAACUAAUUUGUAUGCGAAAGUAUAUUGAUUAGUUUUGGAGUACUCGUGGUCG
Procedure, shortened: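 Library with all eight P1ex-region intron nucleotides randomised, intron inside the knt kanamycin-resistance gene on pET-22b(+), in E. coli BL21(DE3). Cells grew overnight at 37°C or 30°C on LB agar with or without 25 μg/mL kanamycin (plus 100 μg/mL carbenicillin, 50 μM IPTG, 0.2% rhamnose), in six replicate transformations. Pooled colonies were amplicon-sequenced on Illumina HiSeq 2500. DiMSum fitness is the error-weighted combination of wild-type-normalised replicate fold changes, kanamycin versus none.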

Row | Sequence | self-splicing fitness (ln) (30 °C) | self-splicing fitness (ln) (37 °C)
1 | ACCAAGCAAUAUUACGGAUU | -2.62 ± 0.081 | -1.06 ± 0.081
2 | AGGCAGCAAUAUUACGUUCC | -0.801 ± 0.12 | -0.27 ± 0.16
3 | CGCUAGCAAUAUUACGGGGA | -2.93 ± 0.32 | -1.95 ± 0.32
4 | UUUCAGCAAUAUUACGAUGG | -2.15 ± 0.14 | -0.745 ± 0.16
5 | CCAAAGCAAUAUUACGCGGA | -3.47 ± 0.22 | -2.76 ± 0.3
6 | AUAUAGCAAUAUUACGUCUA | -0.735 ± 0.12 | -0.495 ± 0.12
7 | ACGUAGCAAUAUUACGGACU | -2.66 ± 0.3 | -0.29 ± 0.24
8 | UUAGAGCAAUAUUACGAUGA | 0.174 ± 0.1 | 0.371 ± 0.14
9 | AGACAGCAAUAUUACGUUCC | -2.2 ± 0.16 | -1.77 ± 0.18
10 | AUAAAGCAAUAUUACGCAAA | -1.01 ± 0.1 | -1.03 ± 0.14
11 | AAAUAGCAAUAUUACGAGUU | -1.22 ± 0.11 | -0.896 ± 0.11
12 | CUCUAGCAAUAUUACGUACA | -3.04 ± 0.38 | -1.89 ± 0.24
13 | CGCAAGCAAUAUUACGCCUC | -3.64 ± 0.22 | -1.78 ± 0.15
14 | ACUGAGCAAUAUUACGGGUA | -3.08 ± 0.24 | -1.67 ± 0.14
15 | GACCAGCAAUAUUACGGGGA | -0.82 ± 0.074 | -0.839 ± 0.087
16 | UCUAAGCAAUAUUACGGUAG | -2.09 ± 0.11 | -0.881 ± 0.11
17 | GUAUAGCAAUAUUACGAAUU | -3.2 ± 0.22 | -1.13 ± 0.18
18 | UAUGAGCAAUAUUACGCUCC | -1.47 ± 0.31 | 
19 | GUCAAGCAAUAUUACGUCUU | -2.96 ± 0.071 | -1.58 ± 0.066
20 | CCCCAGCAAUAUUACGCAAC | -3.54 ± 0.14 | -2.48 ± 0.15
21 | AUGAAGCAAUAUUACGUAUC | -4.1 ± 0.24 | -1.99 ± 0.18
22 | GGCGAGCAAUAUUACGCGGU | -3.13 ± 0.21 | -1.69 ± 0.22

Row | Sequence | self-splicing fitness (ln) (30 °C) | self-splicing fitness (ln) (37 °C)
23 | CAGCAGCAAUAUUACGCGUU | -3.04 ± 0.14 | -2.45 ± 0.17
24 | AGGCAGCAAUAUUACGGUAG | -3.33 ± 0.25 | -2.66 ± 0.29
25 | AACGAGCAAUAUUACGGAGU |  | -1.74 ± 0.14
26 | UCUCAGCAAUAUUACGGCAA | -2.86 ± 0.25 | -2.44 ± 0.17
27 | GCUAAGCAAUAUUACGAUGA | -0.837 ± 0.09 | -0.253 ± 0.1
28 | UAACAGCAAUAUUACGCUAC | -3.37 ± 0.15 | -2.24 ± 0.2
29 | GGGAAGCAAUAUUACGAGUU | -2.86 ± 0.15 | -1.02 ± 0.099
30 | CAGGAGCAAUAUUACGCCCU |  | -1.65 ± 0.32
31 | ACAAAGCAAUAUUACGCCUC | -2.8 ± 0.28 | -2.2 ± 0.3
32 | UACAAGCAAUAUUACGCCAC | -2.95 ± 0.27 | 
33 | AGAAAGCAAUAUUACGAGUG | -2.27 ± 0.094 | -1.96 ± 0.12
34 | AGUGAGCAAUAUUACGGAUC | -2.42 ± 0.25 | -1.25 ± 0.34
35 | AUUUAGCAAUAUUACGGCAU | -0.0305 ± 0.11 | -0.15 ± 0.18
36 | UCCUAGCAAUAUUACGGACU | -3.59 ± 0.24 | -2.39 ± 0.22
37 | UCGAAGCAAUAUUACGAUCG | -1.25 ± 0.099 | -0.609 ± 0.12
38 | GACAAGCAAUAUUACGAGUC | -1.85 ± 0.15 | -2.72 ± 0.28
39 | CAAAAGCAAUAUUACGGUCU | -3.38 ± 0.13 | -1.1 ± 0.086
40 | UCCUAGCAAUAUUACGUCGU | -2.3 ± 0.13 | -0.732 ± 0.13
41 | GAAAAGCAAUAUUACGAGAA | -3.21 ± 0.48 | -1.11 ± 0.23
42 | UAAGAGCAAUAUUACGCGCG | -1.38 ± 0.24 | -1.35 ± 0.3
43 | UACUAGCAAUAUUACGACAG | -1.04 ± 0.1 | -0.806 ± 0.13

Source: the supplement of paper PMC7877785
